{"source": "paper PMC10779143", "about": "“Collagen-like Osteoclast-Associated Receptor (OSCAR)-Binding Motifs Show a Co-Stimulatory Effect on Osteoclastogenesis in a Peptide Hydrogel System” (International Journal of Molecular Sciences, 2023)", "molecules": {"B1": {"name": "hRANKL: human RANKL (hRANKL) (catalogue number: 310-01 from Peprotech, London, UK) (protein, UniProt O14788 69-317, looked up)", "extracellular domain": "YFRAQMDPNRISEDGTHCIYRILRLHENADFQDTTLESQDTKLIPDSCRRIKQAFQGAVQKELQHIVGSQHIRAEKAMVDGSWLDLAKRSKLEAQPFAHLTINATDIPSGSHKVSLSSWYHDRGWAKISNMTFSNGKLIVNQDGFYYLYANICFRHHETSGDLATEYLQLMVYVTKTSIKIPSSHTLMKGGSTKYWSGNSEFHFYSINVGGFFKLRSGEEISIEVSNPSLLDPDQDATYFGAFKVRDID", "modifications": "extracellular domain"}, "B2": {"name": "RANKL: RANK ligand (RANKL), as used in cited studies (protein, UniProt O14788 140-317, looked up)", "Tumor necrosis factor ligand …": "IRAEKAMVDGSWLDLAKRSKLEAQPFAHLTINATDIPSGSHKVSLSSWYHDRGWAKISNMTFSNGKLIVNQDGFYYLYANICFRHHETSGDLATEYLQLMVYVTKTSIKIPSSHTLMKGGSTKYWSGNSEFHFYSINVGGFFKLRSGEEISIEVSNPSLLDPDQDATYFGAFKVRDID"}}, "key": {"Raw 264.7 cells [1]": {"test_system": "Raw 264.7 cells", "test": "TRAP staining / osteoclast morphology of Raw 264.7 cells on peptide-coated tissue culture plastic", "type": "cell-based", "procedure": "Raw 264.7 cells were cultured and passaged as previously described. Cell adhesion to OP1_Hyp and OP1_Pro was assessed as shown by Barrow et al.. Briefly, 48-well plates were coated with 10 µg/mL of OSCAR-binding peptides overnight at 4 °C. The excess peptide was then removed by washing with PBS before adding 1% BSA to block non-specific binding sites for 1 h at 25 °C. Raw 264.7 cells were then resuspended at a concentration of 2 × 10^5 cells/mL and added to the well. Cells were cultured with different concentrations of human RANKL (hRANKL) (catalogue number: 310-01 from Peprotech, London, UK) (0–100 ng/mL) for up to 5 days to assess the contribution of the OSCAR-binding peptides OP1_Hyp and OP1_Pro to the differentiation of Raw 264.7 cells to mature OCs.\nAfter 5 days of post-culture, Raw 264.7 cells were fixed in 4% PFA for 15 min at room temperature. TRAP was stained following the manufacturer’s protocol and evaluated by light microscopy (ThermoFisher, Swindon, UK). Multinucleated TRAP+ cells containing more than three nuclei were scored as mature OCs."}, "Raw 264.7 cells [2]": {"test_system": "Raw 264.7 cells", "conditions": "cited from earlier work"}}}
{"molecule": "B1", "values": [{"measurement": "Differentiation, 1 ng/mL hRANKL", "setting": "Raw 264.7 cells [1]; 5 days on TCP, 1 ng/mL hRANKL", "value": "No differentiation was observed"}, {"measurement": "Average cell diameter of treated cells", "setting": "Raw 264.7 cells [1]; 5 days, 100 ng/mL hRANKL, TCP with OP1_Hyp or OP1_Pro, untreated cells 38.1 ± 8.8 µm", "value": "273.9 ± 73.4", "unit": "µm"}]}
{"molecule": "B2", "values": [{"measurement": "OSCAR and TRAP levels, 50 ng/mL RANKL only", "setting": "Raw 264.7 cells [2]; days 1-4, ref Lampiasi et al. [35]", "value": "increased significantly between days 1 and 2 of culture before decreasing sharply on days 3 and 4"}, {"measurement": "Lowest optimal concentration for osteoclastic cell formation", "setting": "Raw 264.7 cells [2]; ref Song et al. [29]", "value": 30, "unit": "ng/mL"}]}
